Among the data in publication PMC314469, “Protein Interaction Networks by Proteome Peptide Scanning” (PLoS Biology, 2004) are normalised SPOT signal, Boehringer light units (BLU); mean over the file's lines of this peptide values, retold here.

Assay in all cases: SPOT array
Assay [1] concerns the target T1, Boi1 SH3 (BOI1_YEAST), P38041.
T1 chain: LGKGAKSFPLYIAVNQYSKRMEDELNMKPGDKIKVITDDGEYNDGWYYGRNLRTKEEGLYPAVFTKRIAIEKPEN

Assay [2] concerns the target T2, Boi2 SH3 (BOI2_YEAST), P39969.
T2 chain: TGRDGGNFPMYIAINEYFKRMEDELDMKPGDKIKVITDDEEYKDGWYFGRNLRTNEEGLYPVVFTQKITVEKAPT

Assay [3] has as its target T3, Myo5 SH3 (MYO5_YEAST), Q04439.
T3 chain: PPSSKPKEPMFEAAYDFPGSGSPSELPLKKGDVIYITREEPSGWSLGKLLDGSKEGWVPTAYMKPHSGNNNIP

Assay [4] has as its target T4, Rvs167 SH3 (RV167_YEAST), P39743.
T4 chain: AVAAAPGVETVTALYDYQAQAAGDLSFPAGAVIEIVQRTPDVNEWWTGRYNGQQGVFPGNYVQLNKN

The target in assay [5] is Sho1 SH3 (SHO1_YEAST), P40073.
Chain of Sho1 SH3 (SHO1_YEAST), P40073 (P40073 295-366): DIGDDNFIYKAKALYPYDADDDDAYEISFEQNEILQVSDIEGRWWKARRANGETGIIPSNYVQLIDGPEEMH
Assay [6] concerns the target T5, Yfr024 SH3 (LSB3_YEAST), P43603.
T5 chain: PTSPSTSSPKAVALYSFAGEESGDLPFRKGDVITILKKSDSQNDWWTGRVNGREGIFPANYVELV

For assay [7], the target named is T6, Yhr016c SH3 (YSC84_YEAST), P32793.
T6 chain: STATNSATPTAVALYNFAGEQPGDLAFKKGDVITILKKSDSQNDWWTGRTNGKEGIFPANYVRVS

NTIIKLFPYIPIPV [YLR142W 90-103]: the normalised SPOT signal, Boehringer light units (BLU); mean over the file's lines of this peptide was 88.2 in assay [1]; 29.7 in assay [2]; 204 in assay [3]; 60.5 in assay [4]; 42.7 in assay [5]; 84.5 in assay [6]. In assay [7], this molecule came in with a normalised SPOT signal, Boehringer light units (BLU); mean over the file's lines of this peptide of 211.

As for NSFRKILPQEPEIW [YBR055C 389-402], the normalised SPOT signal, Boehringer light units (BLU); mean over the file's lines of this peptide in assay [1] was found to be 1170; in assay [2], 219; in assay [3] it was 235; in assay [4] it was 524; in assay [5], 1820; in assay [6] it was 1280. The molecule also came in with a normalised SPOT signal, Boehringer light units (BLU); mean over the file's lines of this peptide in assay [7] of 1260.

Take NSNVRIPPTVPSKI [YGR198W 3-16]: the normalised SPOT signal, Boehringer light units (BLU); mean over the file's lines of this peptide in assay [1] amounted to 178; in assay [2], 16.9; in assay [3], 423; in assay [4] it was 155; in assay [5], 1460; in assay [6], 1510. In assay [7], this molecule came in with a normalised SPOT signal, Boehringer light units (BLU); mean over the file's lines of this peptide of 113.

Turning to NTINKSNPQGPSDN [YMR067C 383-396], the normalised SPOT signal, Boehringer light units (BLU); mean over the file's lines of this peptide was found to be 310 in assay [1]; 30.9 in assay [2]; 76.2 in assay [3]; 93.5 in assay [4]; 57.6 in assay [5]; 163 in assay [6]. Moreover, the normalised SPOT signal, Boehringer light units (BLU); mean over the file's lines of this peptide in assay [7] was 46.5.

On to NTIIKFDPGRPIYN [YKL178C 251-264], for which the normalised SPOT signal, Boehringer light units (BLU); mean over the file's lines of this peptide in assay [1] was determined as 49.7; in assay [2], 17.6; in assay [3], 272; in assay [4] it was 72.3; in assay [5] it was 144; in assay [6], 63.3. Moreover, in assay [7], the normalised SPOT signal, Boehringer light units (BLU); mean over the file's lines of this peptide came out at 10.4.

Turning to NSVIRGSPGLPDTL [YPL066W 13-26], the normalised SPOT signal, Boehringer light units (BLU); mean over the file's lines of this peptide in assay [1] came to 228; in assay [2] it was 35; in assay [3] it was 151; in assay [4] it was 251; in assay [5], 35.5; in assay [6], 241. The normalised SPOT signal, Boehringer light units (BLU); mean over the file's lines of this peptide in assay [7] is 296.

With NQIARQIPFQPWYL [YLR083C 510-523], the normalised SPOT signal, Boehringer light units (BLU); mean over the file's lines of this peptide in assay [1] was 22.9; in assay [2], 36.1; in assay [3] it was 248; in assay [4] it was 100; in assay [5], 75.8; in assay [6], 312. Further, in assay [7], the normalised SPOT signal, Boehringer light units (BLU); mean over the file's lines of this peptide turned out to be 50.4.

For NTLLKVVPQEPTAV [YPR029C 360-373], the normalised SPOT signal, Boehringer light units (BLU); mean over the file's lines of this peptide worked out at 1110 in assay [1]; 62.6 in assay [2]; 154 in assay [3]; 62.5 in assay [4]; 75.6 in assay [5]; 116 in assay [6]. Further, the normalised SPOT signal, Boehringer light units (BLU); mean over the file's lines of this peptide in assay [7] is 311.

Consider NSGEKIYPQEPPIS [YJL020C 582-595], for which the normalised SPOT signal, Boehringer light units (BLU); mean over the file's lines of this peptide in assay [1] was 53.9; in assay [2], 0; in assay [3], 112; in assay [4], 43.4; in assay [5], 25.7; in assay [6], 22.7. For the same molecule, the normalised SPOT signal, Boehringer light units (BLU); mean over the file's lines of this peptide in assay [7] amounted to 16.6.

As to NQIARQIPYQPWYL [YDR107C 515-528], the normalised SPOT signal, Boehringer light units (BLU); mean over the file's lines of this peptide in assay [1] stood at 105; in assay [2], 37.7; in assay [3], 164; in assay [4], 33.3; in assay [5], 47.5; in assay [6] it was 145. This molecule also displayed a normalised SPOT signal, Boehringer light units (BLU); mean over the file's lines of this peptide in assay [7] of 42.8.

On to NRANKYDPKGPIYN [YOL049W 169-182], for which the normalised SPOT signal, Boehringer light units (BLU); mean over the file's lines of this peptide in assay [1] was found to be 545; in assay [2], 0; in assay [3], 205; in assay [4] it was 109; in assay [5], 21.7; in assay [6], 58. In addition, the normalised SPOT signal, Boehringer light units (BLU); mean over the file's lines of this peptide in assay [7] worked out at 77.6.

Take NRKQRSIPLSPIVP [YEL009C 209-222]: the normalised SPOT signal, Boehringer light units (BLU); mean over the file's lines of this peptide in assay [1] came to 2120; in assay [2], 77.3; in assay [3] it was 491; in assay [4], 307; in assay [5], 183; in assay [6], 1250. In assay [7], this molecule registered a normalised SPOT signal, Boehringer light units (BLU); mean over the file's lines of this peptide of 521.

With NSFSKNDPNFPILK [YFL036W 156-169], the normalised SPOT signal, Boehringer light units (BLU); mean over the file's lines of this peptide in assay [1] was determined as 203; in assay [2] it was 34.2; in assay [3], 160; in assay [4], 82.4; in assay [5], 106; in assay [6], 58.8. In assay [7], the normalised SPOT signal, Boehringer light units (BLU); mean over the file's lines of this peptide is 57.1.

For the molecule NSTVRRKPHSPNKK [YDR223W 8-21], the normalised SPOT signal, Boehringer light units (BLU); mean over the file's lines of this peptide in assay [1] is 481; in assay [2], 102; in assay [3], 956; in assay [4] it was 722; in assay [5], 147; in assay [6], 821. The molecule also registered a normalised SPOT signal, Boehringer light units (BLU); mean over the file's lines of this peptide in assay [7] of 1830.
